Reference: US20250277008A1, “Novel Anti-Bacterial Peptides Derived From Differentiating Stem Cells” (AGENCY FOR SCIENCE, TECHNOLOGY AND RESEARCH, priority 2022, published 2025)
Values after ≈ are worked out from the molar mass of the structure shown. “Also recorded” adds a separate entry of the source. Read-outs that look alike come from different tables or passages of the source. Ends that are not written are not given here.

Legend:
[1] = system: P. aeruginosa (PA); assay type: cell-based, Pseudomonas aeruginosa (ATCC 14213); details: for minimum bactericidal concentration (MBC): PA; for minimum bactericidal concentration (MBC) / concentration required to significantly kill: MBC = lowest concentration killing ≥50% colonies vs media control
Procedure: (§1) Examination of the potency of conditioned media obtained from adipose-derived mesenchymal stem cells (ASC-CM) and recombinant peptides against S. typhimurium, P. aeruginosa and S. aureus strains were performed by using the broth microdilution protocol from the Clinical and Laboratory Standards Institute (CLSI) guidelines (CLSI 2012). Briefly, five freshly plated bacteria colonies were grown in cation adjusted MH2 broth in a shaker incubator at 37° C., 220 RPM. Cells were grown to an optical density (OD600) of 0.20 using a Microplate Spectrophotometer. 100 μL of microbial culture containing ˜5×10^5 CFU/mL of bacteria in the respective broths were introduced into each well containing 100 μL of ASC-CM or peptides and incubated overnight at 37° C. Next, to check the bactericidal effects, 100 μL from each well was transferred and spread on sterile MH2 agar plates. The plates were incubated overnight at 37° C. and the number of colonies forming units (CFU) was observed the next day. Readings of bacteria grown in media without any treatments were normalized to 100% as media control. Minimum bactericidal concentration (MBC) was defined as the lowest peptide concentration (μM) required to kill ≥50% bacterial colonies compared to the media control.

[2] = system: 3-day old P. aeruginosa (PA) biofilm; assay: Estimation of biofilm disruption (crystal violet staining); assay type: cell-based, Pseudomonas aeruginosa (ATCC 14213)
Procedure: Biofilms were grown in cation adjusted MH2 broth for 72 hours in 96-well clear bottom polystyrene plates. The biofilm inoculum was prepared by subculturing overnight bacterial culture for 90 minutes until OD600 reaches ˜0.3-0.4. 200 μL of biofilm inoculum was aliquoted into each well of the 96-well plate. After 72 hours of static incubation at 37° C., the spent media was expelled, and the biofilms were treated with ASC-CM for 24 hours. […] Briefly, all the contents in the 96-well plates were removed and the wells were washed thrice with 1×PBS (Phosphate Buffer Solution) to remove the non-adherent planktonic bacteria. The attached biofilms were fixed with 95% methanol for 5 minutes. The wells were air-dried and stained with 0.1% crystal violet solution for 15 minutes at room temperature. The crystal violet solution was removed, and the wells were washed with water three times. The plates were again air-dried, and the stained biofilm was solubilized using 30% acetic acid. The absorbance of the biofilms were recorded at OD595 using Micro xMark™ Microplate Absorbance Spectrophotometer.

[3] = system: S. typhimurium (ST); assay: Anti-bacterial resistance evolution assay (serial passaging); assay type: cell-based; details: Salmonella enterica, 384 h, read-out: Minimum Inhibitory Concentration (MIC) after serial passaging
Procedure: To determine the antibacterial effects of the ASC-CM or anti-bacterial peptides, intracellular ATP levels of the bacteria was determined by the ATP Determination Kit. As indicated in the antibacterial assay protocol, after overnight incubation of the ASC-CM or peptides with bacteria for a period of 24 hours, the culture was first spun to eliminate the extracellular ATP and other metabolic waste released from the dead bacteria. The bacterial pellet was resuspended in equivalent amount of water and the levels of intracellular ATP was calculated based on manufacturer's instructions.
The resistance development of S. typhimurium (ST) strain was assessed by sequential passaging in the presence of sub-inhibitory concentrations of gentamicin or ASC-CM. Briefly, sequential passaging of S. typhimurium (ST) cells was done with full-strength, ½-strength, and ¼-strengths of ASC-CM or sub-inhibitory concentrations of gentamicin for a period of 4 weeks. The cells grown in sub-inhibitory strengths of either conditioned media (CM) or gentamicin were diluted to A600 nm (OD600) of 0.1 and serially passaged daily with the same concentrations for 4 weeks at 37° C. with agitation at 24 h intervals.

[4] = system: human keratinocytes; assay: 2-dimensional scratch assay; assay type: cell-based; details: compared to media control
Procedure: Cell confluency of human keratinocytes were assessed in presence of peptides in a 2D scratch assay at each timepoint by applying an ImageJ plugin PHANTAST on phase contrast time lapse images. The rate of change of keratinocytes confluency was calculated by obtaining a best fit line across the confluency vs time plot as described in. The rate of change of confluence was used as a surrogate measure for speed of migrating keratinocytes.

[5] = system: S. typhimurium (ST); assay: Antibacterial assay (CLSI broth microdilution, CFU counts); assay type: cell-based; details: for minimum bactericidal concentration (MBC) / concentration required to significantly kill: MBC = lowest concentration killing ≥50% colonies vs media control
Procedure: as §1

[6] = system: S. aureus (SA); assay type: cell-based; details: for minimum bactericidal concentration (MBC) / concentration required to significantly kill: MBC = lowest concentration killing ≥50% colonies vs media control
Procedure: as §1

[7] = system: 3-day old S. typhimurium (ST) biofilm; assay: Estimation of biofilm disruption (crystal violet staining); assay type: cell-based, Salmonella typhimurium
Procedure: Biofilms were grown in cation adjusted MH2 broth for 72 hours in 96-well clear bottom polystyrene plates. The biofilm inoculum was prepared by subculturing overnight bacterial culture for 90 minutes until OD600 reaches ˜0.3-0.4. 200 μL of biofilm inoculum was aliquoted into each well of the 96-well plate. After 72 hours of static incubation at 37° C., the spent media was expelled, and the biofilms were treated with ASC-CM for 24 hours. Post-treatment, the minimum biofilm inhibition concentration (MBIC) showing >50% reduction was determined by quantifying the levels of remaining attached biofilm, by crystal violet staining method. Briefly, all the contents in the 96-well plates were removed and the wells were washed thrice with 1×PBS (Phosphate Buffer Solution) to remove the non-adherent planktonic bacteria. The attached biofilms were fixed with 95% methanol for 5 minutes. The wells were air-dried and stained with 0.1% crystal violet solution for 15 minutes at room temperature. The crystal violet solution was removed, and the wells were washed with water three times. The plates were again air-dried, and the stained biofilm was solubilized using 30% acetic acid. The absorbance of the biofilms were recorded at OD595 using Micro xMark™ Microplate Absorbance Spectrophotometer.

[8] = system: P. aeruginosa 14213; assay: Murine excisional wound infection model; assay type: in vivo, mice; details: wounds infected 24 hours, then ENO3 (0.2 nM) or SPARCL1 (0.067 nM) for 24 hours; vs untreated controls
Procedure: The murine wound infection model was carried as described with minor modifications. […] Statistical analysis was performed by Student's t-test compared to untreated (PBS). All approved procedures were performed in accordance with the 218 Institutional Animal Care and Use Committee (IACUC) in Nanyang Technological 219 University, School of Biological Sciences (ARFSBS/NIEA0198Z) for murine wound infection model.
The biofilm disruption ability of ENO3 and SPARCL1 in a murine excisional wound infection model. Excisional wounds were infected with ˜10^3 CFU of P. aeruginosa 14213 and treated for 24 hours to form the biofilms. […] Post-treatment, the wound region was excised, and the bacterial count were enumerated.

[9] = system: P. aeruginosa (PA); assay type: cell-based, Pseudomonas aeruginosa (ATCC 14213); details: FIG. 6H

Molecule: HHKAEKSSVLKSKEESH [Peptide S1A, HHKAEKSSVLKSKEESH]
- minimum bactericidal concentration (MBC) [1]: 100000 nM
- anti-bacterial activity (bacterial viability) ([1]; S1A 100 μM): more than 50%
- biofilm disruption activity ([2]; S1A 0.78 μM-3.125 μM): more than 50%

Molecule: CN[C@@H]1[C@@H](O)C(O[C@@H]2[C@@H](O)[C@H](O[C@H]3O[C@H]([C@@H](C)NC)CC[C@H]3N)[C@@H](N)C[C@H]2N)OC[C@]1(C)O (stereo partly drawn) [Gentamicin, (3R,4R,5R)-2-{[(1S,2S,3R,4S,6R)-4,6-diamino-3-{[(2R,3R,6S)-3-amino-6-[(1R)-1-(methylamino)ethyl]oxan-2-yl]oxy}-2-hydroxycyclohexyl]oxy}-5-methyl-4-(methylamino)oxane-3,5-diol, reference compound]
- MIC [3]: 1020 µg/mL (≈ 2140 µM)
- migration of human keratinocytes (rate of change of confluency) [4]: significantly impaired; also recorded: no cell migration is observed

Molecule: KQRNKVKKIYLDEKR [Peptide S1B, KQRNKVKKIYLDEKR]
- minimum bactericidal concentration (MBC) [1]: 50000 nM
- anti-bacterial activity (bacterial viability) ([1]; S1B 50 μM): more than 50%
- biofilm disruption activity ([2]; S1B 6.25 μM-12.5 μM): more than 50%

Molecule: KVNQIGSVTESIQACKLAQSN [Peptide E1A]
- anti-bacterial activity (bacterial viability) ([1]; E1A 0.39 μM): more than 50%
- minimum bactericidal concentration (MBC) [1]: 390 nM
- biofilm disruption activity ([2]; E1A 0.39 μM-1.56 μM): more than 50%
- migration of human keratinocytes (rate of change of confluency) [4]: increased migration of human keratinocytes; also recorded: higher migration speed

B1: ENO3: recombinant full-length human ENO3 peptide, SEQ ID NO: 1, identified in bacteria-primed ASC conditioned media (protein, listed as Homo sapiens)
chain: MAMQKIFAREILDSRGNPTVEVDLHTAKGRFRAAVPSGASTGIYEALELRDGDKGRYLGKGVLKAVENINNTLGPALLQKKLSVVDQEKVDKFMIELDGTENKSKFGANAILGVSLAVCKAGAAEKGVPLYRHIADLAGNPDLILPVPAFNVINGGSHAGNKLAMQEFMILPVGASSFKEAMRIGAEVYHHLKGVIKAKYGKDATNVGDEGGFAPNILENNEALELLKTAIQAAGYPDKVVIGMDVAASEFYRNGKYDLDFKSPDDPARHITGEKLGELYKSFIKNYPVVSIEDPFDQDDWATWTSFLSGVNIQIVGDDLTVTNPKRIAQAVEKKACNCLLLKVNQIGSVTESIQACKLAQSNGWGVMVSHRSGETEDTFIADLVVGLCTGQIKTGAPCRSERLAKYNQLMRIEEALGDKAIFAGRKFRNPKAK
- bacterial reduction (CFU %) ([5]; ENO3 2.04 nM): more than 50%
- minimum bactericidal concentration (MBC) / concentration required to significantly kill [5]: 2.04 nM
- bacterial reduction (CFU %) ([1]; ENO3 0.204 nM): more than 50%
- minimum bactericidal concentration (MBC) / concentration required to significantly kill [1]: 0.204 nM
- bacterial reduction (CFU %) ([6]; ENO3 0.102 nM, FIG. 6C): more than 50%
- minimum bactericidal concentration (MBC) / concentration required to significantly kill [6]: 0.102 nM
- MBC ([6]; S. aureus, >99% reduction of viable colonies, FIG. 6G): 2000 nM
- MIC ([6]; S. aureus, spot plate, FIG. 6G): 2000 nM
- biofilm disruption ([2]; ENO3 about 0.0102 nM): ~50%
- biofilm disruption ([7]; ENO3 about 0.0102 nM): more than 50%
- migration of human keratinocytes (rate of change of confluency) [4]: increased migration of human keratinocytes; also recorded: higher keratinocytes migration rate
- bacterial colonies (CFU counts) in excised wound [8]: reduction of bacterial colonies; also recorded: Reduction in bacterial colonies
- MBC ([9]; >99% reduction of viable colonies): 6000 nM
- MIC ([9]; spot plate): 4000 nM

B2: SPARCL1: recombinant full-length human SPARCL1 peptide, SEQ ID NO: 2, identified in bacteria-primed ASC conditioned media (protein, listed as Homo sapiens)
chain: MKTGLFFLCLLGTAAAIPTNARLLSDHSKPTAETVAPDNTAIPSLRAEAEENEKETAVSTEDDSHHKAEKSSVLKSKEESHEQSAEQGKSSSQELGLKDQEDSDGHLSVNLEYAPTEGTLDIKEDMSEPQEKKLSENTDFLAPGVSSFTDSNQQESITKREENQEQPRNYSHHQLNRSSKHSQGLRDQGNQEQDPNISNGEEEEEKEPGEVGTHNDNQERKTELPREHANSKQEEDNTQSDDILEESDQPTQVSKMQEDEFDQGNQEQEDNSNAEMEEENASNVNKHIQETEWQSQEGKTGLEAISNHKETEEKTVSEALLMEPTDDGNTTPRNHGVDDDGDDDGDDGGTDGPRHSASDDYFIPSQAFLEAERAQSIAYHLKIEEQREKVHENENIGTTEPGEHQEAKKAENSSNEEETSSEGNMRVHAVDSCMSFQCKRGHICKADQQGKPHCVCQDPVTCPPTKPLDQVCGTDNQTYASSCHLFATKCRLEGTKKGHQLQLDYFGACKSIPTCTDFEVIQFPLRMRDWLKNILMQLYEANSEHAGYLNEKQRNKVKKIYLDEKRLLAGDHPIDLLLRDFKKNYHMYVYPVHWQFSELDQHPMDRVLTHSELAPLRASLVPMEHCITRFFEECDPNKDKHITLKEWGHCFGIKEEDIDENLLF
- minimum bactericidal concentration (MBC) / concentration required to significantly kill [5]: 0.0067 nM
- bacterial reduction (CFU %) ([5]; SPARCL1 0.0067 nM): more than 50%
- minimum bactericidal concentration (MBC) / concentration required to significantly kill [1]: 268 nM
- bacterial reduction (CFU %) ([1]; SPARCL1 268 nM): more than 50%
- minimum bactericidal concentration (MBC) / concentration required to significantly kill [6]: 1000 nM
- bacterial reduction (CFU %) ([6]; SPARCL1 1000 nM, FIG. 6F): more than 50%
- biofilm disruption ([2]; SPARCL1 about 0.00134 nM): ~50%
- biofilm disruption ([7]; SPARCL1 about 0.00134 nM): ~50%
- migration of human keratinocytes (rate of change of confluency) [4]: increased migration of human keratinocytes; also recorded: higher keratinocytes migration rate
- bacterial colonies (CFU counts) in excised wound [8]: reduction of bacterial colonies; also recorded: Reduction in bacterial colonies
